The series “cross-linking” concerns the molecule itself. As to the kind of experiment: cross-linking.
The target in a further series is T1, 6His-Flag-DIAP1 (Drosophila, UniProt Q24306 1-438).
T1 sequence (looked up): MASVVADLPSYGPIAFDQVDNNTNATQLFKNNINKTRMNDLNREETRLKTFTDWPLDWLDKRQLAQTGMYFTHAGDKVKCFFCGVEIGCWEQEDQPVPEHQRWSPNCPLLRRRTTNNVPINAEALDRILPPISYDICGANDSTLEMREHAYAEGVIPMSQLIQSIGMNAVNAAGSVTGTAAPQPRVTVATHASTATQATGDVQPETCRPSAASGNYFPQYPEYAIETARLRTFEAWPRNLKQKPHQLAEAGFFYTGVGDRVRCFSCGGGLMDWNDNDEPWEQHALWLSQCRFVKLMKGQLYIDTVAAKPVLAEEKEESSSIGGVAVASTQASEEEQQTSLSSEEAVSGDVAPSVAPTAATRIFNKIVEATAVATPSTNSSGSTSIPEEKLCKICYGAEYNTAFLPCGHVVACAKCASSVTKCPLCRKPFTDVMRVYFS
As to the kind of experiment: co-IP.

B1: HidΔMTS-His6 (domain or fragment, Drosophila, UniProt Q24106 1-386, looked up)
chain: MAVPFYLPEGGADDVASSSSGASGNSSPHNHPLPSSASSSVSSSGVSSASASSASSSSSASSDGASSAASQSPNTTTSSATQTPMQSPLPTDQVLYALYEWVRMYQSQQSAPQIFQYPPPSPSCNFTGGDVFFPHGHPNPNSNPHPRTPRTSVSFSSGEEYNFFRQQQPQPHPSYPAPSTPQPMPPQSAPPMHCSHSYPQQSAHMMPHHSAPFGMGGTYYAGYTPPPTPNTASAGTSSSSAAFGWHGHPHSPFTSTSTPLSAPVAPKMRLQRSQSDAARRKRLTSTGEDEREYQSDHEATWDEFGDRYDNFTAGRERLQEFNGRIPPRKKKSSNSHSSSSNNPVCHTDSQPGGTSQAESGAIHGHISQQRQVERERQKAKAEKKKP
For the molecule B1, the binding result in the series “cross-linking” and with 6His-Flag-DIAP1 was “binds” in each case.

B2: Rpr-His6 (natural protein, Drosophila, UniProt Q24475 1-65, looked up)
chain: MAVAFYIPDQATLLREAEQKEQQILRLRESQWRFLATVVLETLRQYTSCHPKTGRKSGKYRKPSQ
Take B2: the binding result in “cross-linking” is “binds”.

(Values after publication PMC3101595 (The Journal of Cell Biology, 2010).)
